Substrate in series [1]: NC(=O)C1=CN([C@@H]2O[C@H](COP(=O)(O)OP(=O)(O)OC[C@H]3O[C@@H](n4cnc5c(N)ncnc54)[C@H](OP(=O)(O)O)[C@@H]3O)[C@@H](O)[C@H]2O)C=CC1
As to the kind of experiment: purified protein. As to conditions: varied: cofactor.

Substrate in series [2]: NC(=O)C1=CN([C@@H]2O[C@H](COP(=O)(O)OP(=O)(O)OC[C@H]3O[C@@H](n4cnc5c(N)ncnc54)[C@H](O)[C@@H]3O)[C@@H](O)[C@H]2O)C=CC1
Put plainly: purified protein. Particulars: varied: cofactor.

Broadly, the kcat is the number of substrate molecules converted per active site and unit of time at saturation. By kcat/Km is commonly meant the turnover number divided by the Michaelis constant.

B1: SMFMO (Stenotrophomonas maltophilia K279a) (protein)
chain: MDSVDVVVIGGGQSGLSAGYFLRRSGLSYVILDAEASPGGAWQHAWHSLHLFSPAGWSSIPGWPMPASQGPYPARAEVLAYLAQYEQKYALPVLRPIRVQRVSHFGERLRVVARDGRQWLARAVISATGTWGEAYTPEYQGLESFAGIQLHSAHYSTPAPFAGMRVAIIGGGNSGAQILAEVSTVAETTWITQHEPAFLADDVDGRVLFERATERWKAQQEGREPDLPPGGFGDIVMVPPVLDARARGVLAAVPPPARFSPTGMQWADGTERAFDAVIWCTGFRPALSHLKGLDLVTPQGQVEVDGSGLRALAVPSVWLLGYGDWNGMASATLIGVTRYAREAVRQVTAYCADHQDR
As to B1, in “purified protein [1]”, the Km came to 27.3 ± 5.3 M x 10^-6, the kcat amounted to 0.022 ± 0.002 s⁻¹ and the kcat/Km stood at 805 M⁻¹ s⁻¹. In the series “purified protein [2]”, the Km was 23.7 ± 9.1 M x 10^-6, the catalytic constant (kcat) turned out to be 0.029 ± 0.003 s⁻¹ and the catalytic efficiency (kcat/Km) stood at 1220 M⁻¹ s⁻¹.
